Results reported in PMC10397247.

How the values were obtained:
Assay in all cases: two-hybrid library CCNG1;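 further: natural log of median RNA to DNA barcode read ratio; higher means stronger binding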
[1] = biological target: T1, 4H591-bN
T1 chain: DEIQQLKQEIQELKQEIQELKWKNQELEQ

[2] = biological target: T2, 4H3628-bN
T2 chain: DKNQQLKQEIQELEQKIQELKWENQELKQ

[3] = biological target: T3, 4H3462-bN
T3 chain: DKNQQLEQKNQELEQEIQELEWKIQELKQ

[4] = biological target: T4, 4H3926-bN
T4 chain: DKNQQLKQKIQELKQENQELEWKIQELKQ

[5] = biological target: T5, 4H3613-bN
T5 chain: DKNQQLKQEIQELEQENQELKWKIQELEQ

[6] = biological target: T6, 4H626-bN
T6 chain: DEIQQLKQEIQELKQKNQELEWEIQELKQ

[7] = biological target: T7, 4H3277-bN
T7 chain: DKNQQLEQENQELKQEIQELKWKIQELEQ

[8] = biological target: T8, 4H3414-bN
T8 chain: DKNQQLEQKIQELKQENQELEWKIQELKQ

[9] = biological target: T9, 4H3298-bN
T9 chain: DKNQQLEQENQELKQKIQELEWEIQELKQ

[10] = biological target: T10, 4H3497-bN
T10 chain: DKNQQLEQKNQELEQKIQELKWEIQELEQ

[11] = biological target: T11, 4H906-bN
T11 chain: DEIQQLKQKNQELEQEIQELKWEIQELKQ

[12] = biological target: T12, 4H3175-bN
T12 chain: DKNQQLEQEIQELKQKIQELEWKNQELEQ

[13] = biological target: T13, O6-bS
T13 chain: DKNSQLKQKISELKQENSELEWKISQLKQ

[14] = biological target: T14, O9-bS
T14 chain: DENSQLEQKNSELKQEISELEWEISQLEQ

[15] = biological target: T15, O7-bS
T15 chain: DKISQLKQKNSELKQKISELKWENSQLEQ

[16] = biological target: T16, O5-bS
T16 chain: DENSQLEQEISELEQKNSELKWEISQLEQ

[17] = biological target: T17, O4-bS
T17 chain: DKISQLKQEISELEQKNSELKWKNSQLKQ

[18] = biological target: T18, O8-bS
T18 chain: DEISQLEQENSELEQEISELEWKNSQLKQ

[19] = biological target: T19, P6A-bA
T19 chain: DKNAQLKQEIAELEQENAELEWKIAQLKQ

[20] = biological target: T20, O3-bS
T20 chain: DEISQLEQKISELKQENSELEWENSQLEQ

**Q.** With DKNQQLEQEIQELKQKIQELEWKNQELEQ [4H3175-bN] as the binder, how does the interaction score [1] read?
**A.** -0.0622

**Q.** And the interaction score [2]?
**A.** -0.511

**Q.** And the interaction score [3]?
**A.** -0.773

**Q.** And the interaction score [4]?
**A.** -0.72

**Q.** What about the interaction score [5] of the same binder?
**A.** -0.132

**Q.** And the interaction score [6]?
**A.** -0.521

**Q.** What about the interaction score [7] of the same binder?
**A.** 0.658

**Q.** And the interaction score [8]?
**A.** -0.633

**Q.** And the interaction score [9]?
**A.** -0.312

**Q.** And the interaction score [10]?
**A.** -0.279

**Q.** What about the interaction score [11] of the same binder?
**A.** -1.02

**Q.** And the interaction score [12]?
**A.** 0.818

**Q.** Which interaction score [13] does the source give for DEISQLEQKISELKQENSELEWENSQLEQ [O3-bS] here?
**A.** -0.838

**Q.** And the interaction score [14]?
**A.** -1.14

**Q.** What about the interaction score [15] of the same binder?
**A.** -0.235

**Q.** And the interaction score [16]?
**A.** 0.221

**Q.** And the interaction score [17]?
**A.** 2.28

**Q.** What about the interaction score [18] of the same binder?
**A.** -0.691

**Q.** And the interaction score [19]?
**A.** -1.14

**Q.** What about the interaction score [20] of the same binder?
**A.** -1.46
